How the values were obtained:
Format in all cases: in vivo
[1] = tested on: Arabidopsis thaliana T1 plants; assay: flumioxazin tolerance of transgenic Arabidopsis thaliana T1 plants (spray, grade of pesticide damage); settings: 7 DAT, number of plants of 24 per genotype, grades
Procedure, shortened: (§1)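 Read-out: injury grade at 7 DAT from injured vs total leaf area (0 = as water-sprayed; 1 = <10%; 3 = 100%); grades 0–1 were rated highly resistant. Plants were 18-day-old glufosinate-selected PPO-transgenic T1 lines plus controls, n = 24 per genotype. Doses: saflufenacil 25/100, sulfentrazone 450/900, flumioxazin 60/240, oxyfluorfen 180/720 g ai/ha.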

[2] = tested on: transgenic soybean plants; assay: flumioxazin tolerance of transgenic soybean plants (spray, grade of pesticide damage); settings: for The grade of pesticide damage/plant: grade 0 / The grade of pesticide damage/plant: grade 1 / The grade of pesticide damage/plant: grade 2 / The grade of pesticide damage/plant: grade 3: 7 DAT, number of plants of 16 per genotype, grades
[3] = tested on: transgenic soybean plants; assay: saflufenacil tolerance of transgenic soybean plants (spray, grade of pesticide damage); set-up: key to damage levels rated at grade: grade 0 means that the growth status of plants is essentially consistent with those sprayed with the blank solvent (water); grade 1 means that the average of the damage levels of plants is less than 10%; grade 2 means that the average of the damage levels of plants is greater than 100%; grade 3 means that the average of the damage levels of plants is 100%; settings: for The grade of pesticide damage/plant: grade 0 / The grade of pesticide damage/plant: grade 1 / The grade of pesticide damage/plant: grade 2 / The grade of pesticide damage/plant: grade 3: 7 DAT, number of plants of 16 per genotype, grades
[4] = tested on: transgenic soybean plants; assay: oxyfluorfen tolerance of transgenic soybean plants (spray, grade of pesticide damage); settings: for The grade of pesticide damage/plant: grade 0 / The grade of pesticide damage/plant: grade 1 / The grade of pesticide damage/plant: grade 2 / The grade of pesticide damage/plant: grade 3: 7 DAT, number of plants of 16 per genotype, grades; for tolerance to oxyfluorfen: soybean
[5] = tested on: Arabidopsis thaliana T1 plants; assay: saflufenacil tolerance of transgenic Arabidopsis thaliana T1 plants (spray, grade of pesticide damage); settings: 7 DAT, number of plants of 24 per genotype, grades
Procedure, shortened: as §1

[6] = tested on: Arabidopsis thaliana T1 plants; assay: sulfentrazone tolerance of transgenic Arabidopsis thaliana T1 plants (spray, grade of pesticide damage); settings: 7 DAT, number of plants of 24 per genotype, grades
Procedure, shortened: as §1

[7] = tested on: Arabidopsis thaliana T1 plants; assay: oxyfluorfen tolerance of transgenic Arabidopsis thaliana T1 plants (spray, grade of pesticide damage); settings: 7 DAT, number of plants of 24 per genotype, grades
Procedure, shortened: as §1

B1: PPO12A: nucleotide sequence encoding microbial protoporphyrinogen oxidase PPO12 (SEQ ID NO:12), Arabidopsis thaliana/soybean common codon usage bias (nucleic acid)
DNA: ATGAAGAAAGCTCTTTTCCTGTACAGCTCGAGAGAAGGCCAGACAAAAAAGATTCTCAACTACATAGAAGGAGAGTTATCAAATTTTGAATGTGAATTGGTTGACCTTCACACGCTTGATGCTATTGATTTCTCCGTCTATGATCGGGTGCTCATTGGTGCTTCTATACGATATGGTCATTTGAACAAGAAGCTTTATCAGTTTATAGAGAACAACAGACAACAACTAGAGAATCATACCAAAGTTGCCTTCTTCTGCGTCAATCTTACTGCAAGGAAAGAAGATCAAGGAAAAGACACTCCTGAGGGGAGTGTTTACATCCAGAAATTTCTCAAGAAATCACCATGGCAACCGAAGTTGATTGGAGTTTTCGCGGGGGCATTATACTACCCTCGTTATGGATTCTTTGATAAGATGATGATCAAACTCATCATGACTTTAACTGATGGTGAAACCGACACAACAAAGGAAGTGGAGTATACAAATTGGAAAAAAGTATCTTTGTTTGCAAAGAAGTTTGCTGAGCTGTGA
modifications: The nucleotide sequence of PPO12A
different extents of tolerance: tolerance to saflufenacil ([3]; soybean, saflufenacil, compared with the control vector and CK)
4 plant: The grade of pesticide damage/plant: grade 1 ([7]; oxyfluorfen 720 g ai/ha (4×))
1: The grade of pesticide: grade 1 ([6]; sulfentrazone 900 g ai/ha (2×))
23: The grade of pesticide: grade 0 ([6]; sulfentrazone 900 g ai/ha (2×))
0 plant: The grade of pesticide damage/plant: grade 1 ([1]; flumioxazin 60 g ai/ha (1×)) | The grade of pesticide damage/plant: grade 2 ([1]; flumioxazin 60 g ai/ha (1×)) | The grade of pesticide damage/plant: grade 3 ([1]; flumioxazin 60 g ai/ha (1×)) | The grade of pesticide damage/plant: grade 1 ([1]; flumioxazin 240 g ai/ha (4×)) | The grade of pesticide damage/plant: grade 2 ([1]; flumioxazin 240 g ai/ha (4×)) | The grade of pesticide damage/plant: grade 3 ([1]; flumioxazin 240 g ai/ha (4×)) | The grade of pesticide damage/plant: grade 1 ([2]; flumioxazin 120 g ai/ha (2×)) | The grade of pesticide damage/plant: grade 2 ([2]; flumioxazin 120 g ai/ha (2×)) | The grade of pesticide damage/plant: grade 3 ([2]; flumioxazin 120 g ai/ha (2×)) | The grade of pesticide damage/plant: grade 1 ([2]; flumioxazin 240 g ai/ha (4×)) | The grade of pesticide damage/plant: grade 2 ([2]; flumioxazin 240 g ai/ha (4×)) | The grade of pesticide damage/plant: grade 3 ([2]; flumioxazin 240 g ai/ha (4×)) | The grade of pesticide damage/plant: grade 1 ([3]; saflufenacil 50 g ai/ha (2×)) | The grade of pesticide damage/plant: grade 2 ([3]; saflufenacil 50 g ai/ha (2×)) | The grade of pesticide damage/plant: grade 3 ([3]; saflufenacil 50 g ai/ha (2×)) | The grade of pesticide damage/plant: grade 1 ([3]; saflufenacil 100 g ai/ha (4×)) | The grade of pesticide damage/plant: grade 2 ([3]; saflufenacil 100 g ai/ha (4×)) | The grade of pesticide damage/plant: grade 3 ([3]; saflufenacil 100 g ai/ha (4×)) | The grade of pesticide damage/plant: grade 1 ([4]; oxyfluorfen 360 g ai/ha (2×)) | The grade of pesticide damage/plant: grade 2 ([4]; oxyfluorfen 360 g ai/ha (2×)) | The grade of pesticide damage/plant: grade 3 ([4]; oxyfluorfen 360 g ai/ha (2×)) | The grade of pesticide damage/plant: grade 1 ([4]; oxyfluorfen 720 g ai/ha (4×)) | The grade of pesticide damage/plant: grade 2 ([4]; oxyfluorfen 720 g ai/ha (4×)) | The grade of pesticide damage/plant: grade 3 ([4]; oxyfluorfen 720 g ai/ha (4×)) | The grade of pesticide damage/plant: grade 1 ([5]; saflufenacil 25 g ai/ha (1×)) | The grade of pesticide damage/plant: grade 2 ([5]; saflufenacil 25 g ai/ha (1×)) | The grade of pesticide damage/plant: grade 3 ([5]; saflufenacil 25 g ai/ha (1×)) | The grade of pesticide damage/plant: grade 0 ([5]; saflufenacil 100 g ai/ha (4×)) | The grade of pesticide damage/plant: grade 2 ([5]; saflufenacil 100 g ai/ha (4×)) | The grade of pesticide damage/plant: grade 3 ([5]; saflufenacil 100 g ai/ha (4×)) | The grade of pesticide damage/plant: grade 1 ([7]; oxyfluorfen 180 g ai/ha (1×)) | The grade of pesticide damage/plant: grade 2 ([7]; oxyfluorfen 180 g ai/ha (1×)) | The grade of pesticide damage/plant: grade 3 ([7]; oxyfluorfen 180 g ai/ha (1×)) | The grade of pesticide damage/plant: grade 2 ([7]; oxyfluorfen 720 g ai/ha (4×)) | The grade of pesticide damage/plant: grade 3 ([7]; oxyfluorfen 720 g ai/ha (4×))
16 plant: The grade of pesticide damage/plant: grade 0 ([2]; flumioxazin 120 g ai/ha (2×)) | The grade of pesticide damage/plant: grade 0 ([2]; flumioxazin 240 g ai/ha (4×)) | The grade of pesticide damage/plant: grade 0 ([3]; saflufenacil 50 g ai/ha (2×)) | The grade of pesticide damage/plant: grade 0 ([3]; saflufenacil 100 g ai/ha (4×)) | The grade of pesticide damage/plant: grade 0 ([4]; oxyfluorfen 360 g ai/ha (2×)) | The grade of pesticide damage/plant: grade 0 ([4]; oxyfluorfen 720 g ai/ha (4×))
0: damage levels rated at grade ([3]; soybean, saflufenacil at two-fold field concentration (50 g ai/ha)) | The grade of pesticide: grade 1 ([6]; sulfentrazone 450 g ai/ha (1×)) | The grade of pesticide: grade 2 ([6]; sulfentrazone 450 g ai/ha (1×)) | The grade of pesticide: grade 3 ([6]; sulfentrazone 450 g ai/ha (1×)) | The grade of pesticide: grade 2 ([6]; sulfentrazone 900 g ai/ha (2×)) | The grade of pesticide: grade 3 ([6]; sulfentrazone 900 g ai/ha (2×))
24: The grade of pesticide: grade 0 ([6]; sulfentrazone 450 g ai/ha (1×))
high-resistant tolerance: tolerance to flumioxazin ([2]; soybean, flumioxazin at different concentrations (120 and 240 g ai/ha)) | tolerance to saflufenacil ([3]; soybean, saflufenacil at four-fold field concentration (100 g ai/ha)) | tolerance to oxyfluorfen ([4]; oxyfluorfen at four-fold field concentration (720 g ai/ha)) | tolerance to oxyfluorfen ([4]; oxyfluorfen at two-fold field concentration (360 g ai/ha))
24 plant: The grade of pesticide damage/plant: grade 0 ([1]; flumioxazin 60 g ai/ha (1×)) | The grade of pesticide damage/plant: grade 0 ([1]; flumioxazin 240 g ai/ha (4×)) | The grade of pesticide damage/plant: grade 0 ([5]; saflufenacil 25 g ai/ha (1×)) | The grade of pesticide damage/plant: grade 1 ([5]; saflufenacil 100 g ai/ha (4×)) | The grade of pesticide damage/plant: grade 0 ([7]; oxyfluorfen 180 g ai/ha (1×))
20 plant: The grade of pesticide damage/plant: grade 0 ([7]; oxyfluorfen 720 g ai/ha (4×))

Reference: patent US20240200091A1, “USE OF PROTOPORPHYRINOGEN OXIDASE” (BEIJING DABEINONG BIOTECHNOLOGY CO., LTD., priority 2021, published 2024)
